Experiment [1] concerns the target T1, CXCR1 (interleukin 8 receptor alpha chain) (human, UniProt P25024 1-350).
T1 construct: whole, on cells
T1 sequence: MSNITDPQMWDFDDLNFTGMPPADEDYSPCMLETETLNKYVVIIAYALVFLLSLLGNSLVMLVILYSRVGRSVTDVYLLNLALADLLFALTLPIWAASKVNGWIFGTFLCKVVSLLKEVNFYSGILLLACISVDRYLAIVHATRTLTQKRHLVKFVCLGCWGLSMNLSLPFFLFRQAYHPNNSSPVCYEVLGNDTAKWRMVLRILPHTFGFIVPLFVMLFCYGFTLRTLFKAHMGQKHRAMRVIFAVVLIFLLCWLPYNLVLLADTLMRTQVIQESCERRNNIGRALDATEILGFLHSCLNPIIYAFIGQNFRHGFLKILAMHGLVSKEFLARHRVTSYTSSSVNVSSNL
In words: flow cytometry, GFP-toxin on primary human PMNs (CXCR1/CXCR2+ cells). Background: Flow cytometry measures light scatter and fluorescence of single cells or particles in a stream.

Experiment [2] concerns the target T2, CXCR2 (interleukin 8 receptor beta chain) (human, UniProt P25025 1-360).
T2 construct: whole, on cells
T2 sequence: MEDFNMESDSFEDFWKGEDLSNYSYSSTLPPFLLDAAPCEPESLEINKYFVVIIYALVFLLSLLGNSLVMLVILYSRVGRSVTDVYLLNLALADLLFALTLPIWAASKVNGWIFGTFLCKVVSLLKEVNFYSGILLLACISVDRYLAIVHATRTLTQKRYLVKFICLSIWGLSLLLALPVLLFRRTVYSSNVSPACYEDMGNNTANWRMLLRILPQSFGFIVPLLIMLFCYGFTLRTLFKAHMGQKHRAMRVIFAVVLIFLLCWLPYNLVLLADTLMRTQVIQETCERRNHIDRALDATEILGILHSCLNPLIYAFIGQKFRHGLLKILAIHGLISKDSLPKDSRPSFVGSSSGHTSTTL
Described as above.

Experiment [3] has as its target T1, CXCR1 (interleukin 8 receptor alpha …). In words: legend of FIGS. 6A-6E: flow cytometry on PMNs and pulldown.
Experiment [4] has as its target T2, CXCR2 (interleukin 8 receptor beta …). Described as above.

B1: GFP-LukE (green fluorescent protein-fused LukE) (other)
chain: NTNIENIGDGAEVIKRTEDVSSKKWGVTQNVQFDFVKDKKYNKDALIVKMQGFINSRTSFSDVKGSGYELTKRMIWPFQYNIGLTTKDPNVSLINYLPKNKIETTDVGQTLGYNIGGNFQSAPSIGGNGSFNYSKTISYTQKSYVSEVDKQNSKSVKWGVKANEFVTPDGKKSAHDRYLFVQSPNGPTGSAREYFAPDNQLPPLVQSGFNPSFITTLSHEKGSSDTSEFEISYGRNLDITYATLFPRTGIYAERKHNAFVNRNFVVRYEVNWKTHEIKVKGHN
notes: also called LukE-GFP
As for B1, the binding result in experiment [1] and in experiment [2] was “binds” throughout.

B2: His-LukE (N-terminal 6xHis-tagged Leukocidin E, S. aureus Newman) (other)
chain: NTNIENIGDGAEVIKRTEDVSSKKWGVTQNVQFDFVKDKKYNKDALIVKMQGFINSRTSFSDVKGSGYELTKRMIWPFQYNIGLTTKDPNVSLINYLPKNKIETTDVGQTLGYNIGGNFQSAPSIGGNGSFNYSKTISYTQKSYVSEVDKQNSKSVKWGVKANEFVTPDGKKSAHDRYLFVQSPNGPTGSAREYFAPDNQLPPLVQSGFNPSFITTLSHEKGSSDTSEFEISYGRNLDITYATLFPRTGIYAERKHNAFVNRNFVVRYEVNWKTHEIKVKGHN
As for B2, the binding result in experiment [3] and in experiment [4] was “binds” throughout.

These data come from US20190248876A1 (NEW YORK UNIVERSITY, published 2019).
